Test results taken from the supplement of paper PMC5998384.

How the values were obtained:
HeLa Kyoto [1] = test: solubility change mitosis vs G1/S (difference of NP-40 vs SDS log2 ratios) (log2 ratio difference); higher = more soluble in mitosis
HeLa Kyoto [2] = test: thermal stability score vs G1/S (z-score of summed log2 fold changes over temperatures); higher = more thermally stable than in G1/S
HeLa Kyoto [3] = test: solubility in G1/S (NP-40 vs SDS abundance) (log2 ratio); higher = more soluble; conditions: cell cycle stage: G1/S
HeLa Kyoto [4] = test: melting temperature (median over replicates), in situ; higher = more thermally stable
[5] = cell cycle stage: early G1 (4.5 h after nocodazole release)
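Throughout, for melting temperature (median over replicates), in situ: HeLa Kyoto cells synchronized by double thymidine or nocodazole block, proteins quantified by TMT10plex mass spectrometry, three independent biological replicates.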
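Throughout, for solubility change mitosis vs G1/S (difference of NP-40 vs SDS log2 ratios): synchronized HeLa Kyoto cells (double thymidine block for G1/S, nocodazole release for mitosis), protein amounts in NP-40 versus SDS lysates quantified by mass spectrometry, three biological replicates.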
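Throughout, for solubility in G1/S (NP-40 vs SDS abundance): HeLa Kyoto cells arrested at G1/S by double thymidine block, proteins quantified by TMT10plex mass spectrometry in mild NP-40 versus SDS extracts, three biological replicates.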
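Throughout, for thermal stability score vs G1/S (z-score of summed log2 fold changes over temperatures): synchronized HeLa Kyoto cells, proteins quantified by TMT10plex mass spectrometry, three biological replicates, mitosis taken 0.5 h after nocodazole release, G1/S directly after double thymidine block.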

Row | Sequence | solubility change mitosis (log2) (HeLa Kyoto [1]) | thermal stability score (HeLa Kyoto [2]; [5]) | thermal stability score (HeLa Kyoto [2]; cell cycle stage: mitosis) | solubility in G1/S (log2) (HeLa Kyoto [3]) | melting temperature (HeLa Kyoto [4]; cell cycle stage: G1/S) [°C] | melting temperature (HeLa Kyoto [4]; cell cycle stage: mitosis) [°C]
1 | MLVLRSALTRALASRTLAPQMCSSFATGPRQYDGIFYEFRSYYLKPSKMNEFLENFEKNAHLRTAHSELVGYWSVEFGGRMNTVFHIWKYDNFAHRTEVRKALAKDKEWQEQFLIPNLALIDKQESEITYLVPWCKLEKPPKEGVYELATFQMKPGGPALWGDAFKRAVHAHVNLGYTKLVGVFHTEYGALNRVHVLWWNESADSRAAGRHKSHEDPRVVAAVRESVNYLVSQQNMLLIPTSFSPLK [NIPSNAP3A] | -0.224 | -1.76 | -2.47 | -0.107 | 56.2 | 57.7
2 | MMADGAAAGAGGSPSLRELRARMVAAANEIAKERRKQDVVNRVATHSSNIRSTFKPVIDGSMLKNDIKQRLARERREEKRRQQDANKETQLLEKERKTKLQYEKQMEERQRKLKERKEKEEQRRIAAEEKRHQKDEAQKEKFTAILYRTLERRRLADDYQQKRWSWGGSAMANSESKTANKRSASTEKLEQGTSALIRQMPLSSAGLQNSVAKRKTDKERSSSLNRRDSNLHSSTDKEQAERKPRVTGVTNYVMQYVTVPLRKCTSDELRAVMFPMSTMKIPPQTKVEESPLEKVETPPKASVDAPPQVNVEVFCNTSMEASPKAGVGMAPEVSTDSFPVVSVDVSPVVSTYDSEMSMDASPELSIEALPKVDLETVPKVSIVASPEASLEAPPEVSLEALPEVSVEAAPEGSLEAPPKGSAEVAPKESVKGSPKESMEASPEAMVKASPKTSLEASMEASPKAKARDAPKKSEMDKQALIPIAKKRLSSYTECYKWSSSPENACGLPSPISTNRQIQKNCPPSPLPLISKQSPQTSFPYKIMPIQHTLSVQSASSTVKKKKETVSKTTNRCEALSQRHMIYEESGNKSTAGIMNAEAATKILTELRRLAREQREKEEEERQREEMQQRVIKKSKDMAKEAVGGQAEDHLKLKDGQQQNETKKKKGWLDQEDQEAPLQKGDAKIKAQEEADKRKKEHERIMLQNLQERLERKKRIEEIMKRTRKTDVNASKVTETSSHDIYEEAEADNEESDKDSLNEMFPSAILNGTGSPTKFKMPFNNAKKMTHKLVFLEDGTSQVRKEPKTYFNGDLKNFRQKSMKDTSIQEVVSRPSSKRMTSHTTKTRKADETNTTSRSSAQTKSEGFHDILPKSSDTFRQ [MAP7D3] | 0.189 | 2.41 | 6.63 | -0.211 | 50.4 | 52.8
3 | MADRDSGSEQGGAALGSGGSLGHPGSGSGSGGGGGGGGGGGGSGGGGGGAPGGLQHETQELASKRVDIQNKRFYLDVKQNAKGRFLKIAEVGAGGNKSRLTLSMSVAVEFRDYLGDFIEHYAQLGPSQPPDLAQAQDEPRRALKSEFLVRENRKYYMDLKENQRGRFLRIRQTVNRGPGLGSTQGQTIALPAQGLIEFRDALAKLIDDYGVEEEPAELPEGTSLTVDNKRFFFDVGSNKYGVFMRVSEVKPTYRNSITVPYKVWAKFGHTFCKYSEEMKKIQEKQREKRAACEQLHQQQQQQQEETAAATLLLQGEEEGEED [PURA] | 0.112 | -2.25 | -4.83 | 0.415 | 58 | 56.5
4 | MAAVAATAAAKGNGGGGGRAGAGDASGTRKKKGPGPLATAYLVIYNVVMTAGWLVIAVGLVRAYLAKGSYHSLYYSIEKPLKFFQTGALLEILHCAIGIVPSSVVLTSFQVMSRVFLIWAVTHSVKEVQSEDSVLLFVIAWTITEIIRYSFYTFSLLNHLPYLIKWARYTLFIVLYPMGVSGELLTIYAALPFVRQAGLYSISLPNKYNFSFDYYAFLILIMISYIPIFPQLYFHMIHQRRKILSHTEEHKKFE [HACD2] | 0.15 | 0.894 | -0.449 | -0.368 | 54.2 | 55.4
5 | MADGQVAELLLRRLEASDGGLDSAELAAELGMEHQAVVGAVKSLQALGEVIEAELRSTKHWELTAEGEEIAREGSHEARVFRSIPPEGLAQSELMRLPSGKVGFSKAMSNKWIRVDKSAADGPRVFRVVDSMEDEVQRRLQLVRGGQAEKLGEKERSELRKRKLLAEVTLKTYWVSKGSAFSTSISKQETELSPEMISSGSWRDRPFKPYNFLAHGVLPDSGHLHPLLKVRSQFRQIFLEMGFTEMPTDNFIESSFWNFDALFQPQQHPARDQHDTFFLRDPAEALQLPMDYVQRVKRTHSQGGYGSQGYKYNWKLDEARKNLLRTHTTSASARALYRLAQKKPFTPVKYFSIDRVFRNETLDATHLAEFHQIEGVVADHGLTLGHLMGVLREFFTKLGITQLRFKPAYNPYTEPSMEVFSYHQGLKKWVEVGNSGVFRPEMLLPMGLPENVSVIAWGLSLERPTMIKYGINNIRELVGHKVNLQMVYDSPLCRLDAEPRPPPTQEAA [FARSA] | -0.0944 | 0.422 | 0.356 | 0.0439 | 50.2 | 50.4
6 | MKSRFSTIDLRAVLAELNASLLGMRVNNVYDVDNKTYLIRLQKPDFKATLLLESGIRIHTTEFEWPKNMMPSSFAMKCRKHLKSRRLVSAKQLGVDRIVDFQFGSDEAAYHLIIELYDRGNIVLTDYEYVILNILRFRTDEADDVKFAVRERYPLDHARAAEPLLTLERLTEIVASAPKGELLKRVLNPLLPYGPALIEHCLLENGFSGNVKVDEKLETKDIEKVLVSLQKAEDYMKTTSNFSGKGYIIQKREIKPSLEADKPVEDILTYEEFHPFLFSQHSQCPYIEFESFDKAVDEFYSKIEGQKIDLKALQQEKQALKKLDNVRKDHENRLEALQQAQEIDKLKGELIEMNLQIVDRAIQVVRSALANQIDWTEIGLIVKEAQAQGDPVASAIKELKLQTNHVTMLLRNPYLLSEEEDDDVDGDVNVEKNETEPPKGKKKKQKNKQLQKPQKNKPLLVDVDLSLSAYANAKKYYDHKRYAAKKTQKTVEAAEKAFKSAEKKTKQTLKEVQTVTSIQKARKVYWFEKFLWFISSENYLIIGGRDQQQNEIIVKRYLTPGDIYVHADLHGATSCVIKNPTGEPIPPRTLTEAGTMALCYSAAWDARVITSAWWVYHHQVSKTAPTGEYLTTGSFMIRGKKNFLPPSYLMMGFSFLFKVDESCVWRHQGERKVRVQDEDMETLASCTSELISEEMEQLDGGDTSSDEDKEEHETPVEVELMTQVDQEDITLQSGRDELNEELIQEESSEDEGEYEEVRKDQDSVGEMKDEGEETLNYPDTTIDLSHLQPQRSIQKLASKEESSNSSDSKSQSRRHLSAKERREMKKKKLPSDSGDLEALEGKDKEKESTVHIETHQNTSKNVAAVQPMKRGQKSKMKKMKEKYKDQDEEDRELIMKLLGSAGSNKEEKGKKGKKGKTKDEPVKKQPQKPRGGQRVSDNIKKETPFLEVITHELQDFAVDDPHDDKEEQDLDQQGNEENLFDSLTGQPHPEDVLLFAIPICAPYTTMTNYKYKVKLTPGVQKKGKAAKTALNSFMHSKEATAREKDLFRSVKDTDLSRNIPGKVKVSAPNLLNVKRK [NEMF] | -0.0231 | -0.477 | -1.01 | -0.354 | 50.8 | 50.2
7 | MDTKEEKKERKQSYFARLKKKKQAKQNAETASAVATRTHTGKEDNNTVVLEPDKCNIAVEEEYMTDEKKKRKSNQLKEIRRTELKRYYSIDDNQNKTHDKKEKKMVVQKPHGTMEYTAGNQDTLNSIALKFNITPNKLVELNKLFTHTIVPGQVLFVPDANSPSSTLRLSSSSPGATVSPSSSDAEYDKLPDADLARKALKPIERVLSSTSEEDEPGVVKFLKMNCRYFTDGKGVVGGVMIVTPNNIMFDPHKSDPLVIENGCEEYGLICPMEEVVSIALYNDISHMKIKDALPSDLPQDLCPLYRPGEWEDLASEKDINPFSKFKSINKEKRQQNGEKIMTSDSRPIVPLEKSTGHTPTKPSGSSVSEKLKKLDSSRETSHGSPTVTKLSKEPSDTSSAFESTAKENFLGEDDDFVDLEELSSQTGGGMHKKDTLKECLSLDPEERKKAESQINNSAVEMQVQSALAFLGTENDVELKGALDLETCEKQDIMPEVDKQSGSPESRVENTLNIHEDLDKVKLIEYYLTKNKEGPQVSENLQKTELSDGKSIEPGGIDITLSSSLSQAGDPITEGNKEPDKTWVKKGEPLPVKLNSSTEANVIKEALDSSLESTLDNSCQGAQMDNKSEVQLWLLKRIQVPIEDILPSKEEKSKTPPMFLCIKVGKPMRKSFATHTAAMVQQYGKRRKQPEYWFAVPRERVDHLYTFFVQWSPDVYGKDAKEQGFVVVEKEELNMIDNFFSEPTTKSWEIITVEEAKRRKSTCSYYEDEDEEVLPVLRPHSALLENMHIEQLARRLPARVQGYPWRLAYSTLEHGTSLKTLYRKSASLDSPVLLVIKDMDNQIFGAYATHPFKFSDHYYGTGETFLYTFSPHFKVFKWSGENSYFINGDISSLELGGGGGRFGLWLDADLYHGRSNSCSTFNNDILSKKEDFIVQDLEVWAFD [NCOA7] | -0.15 | -0.286 | -0.429 | 0.0391 | 51 | 50.9
8 | MSSNSFPYNEQSGGGEATELGQEATSTISPSGAFGLFSSDLKKNEDLKQMLESNKDSAKLDAMKRIVGMIAKGKNASELFPAVVKNVASKNIEIKKLVYVYLVRYAEEQQDLALLSISTFQRALKDPNQLIRASALRVLSSIRVPIIVPIMMLAIKEASADLSPYVRKNAAHAIQKLYSLDPEQKEMLIEVIEKLLKDKSTLVAGSVVMAFEEVCPDRIDLIHKNYRKLCNLLVDVEEWGQVVIIHMLTRYARTQFVSPWKEGDELEDNGKNFYESDDDQKEKTDKKKKPYTMDPDHRLLIRNTKPLLQSRNAAVVMAVAQLYWHISPKSEAGIISKSLVRLLRSNREVQYIVLQNIATMSIQRKGMFEPYLKSFYVRSTDPTMIKTLKLEILTNLANEANISTLLREFQTYVKSQDKQFAAATIQTIGRCATNILEVTDTCLNGLVCLLSNRDEIVVAESVVVIKKLLQMQPAQHGEIIKHMAKLLDSITVPVARASILWLIGENCERVPKIAPDVLRKMAKSFTSEDDLVKLQILNLGAKLYLTNSKQTKLLTQYILNLGKYDQNYDIRDRTRFIRQLIVPNVKSGALSKYAKKIFLAQKPAPLLESPFKDRDHFQLGTLSHTLNIKATGYLELSNWPEVAPDPSVRNVEVIELAKEWTPAGKAKQENSAKKFYSESEEEEDSSDSSSDSESESGSESGEQGESGEEGDSNEDSSEDSSSEQDSESGRESGLENKRTAKRNSKAKGKSDSEDGEKENEKSKTSDSSNDESSSIEDSSSDSESESEPESESESRRVTKEKEKKTKQDRTPLTKDVSLLDLDDFNPVSTPVALPTPALSPSLMADLEGLHLSTSSSVISVSTPAFVPTKTHVLLHRMSGKGLAAHYFFPRQPCIFGDKMVSIQITLNNTTDRKIENIHIGEKKLPIGMKMHVFNPIDSLEPEGSITVSMGIDFCDSTQTASFQLCTKDDCFNVNIQPPVGELLLPVAMSEKDFKKEQGVLTGMNETSAVIIAAPQNFTPSVIFQKVVNVANVGAVPSGQDNIHRFAAKTVHSGSLMLVTVELKEGSTAQLIINTEKTVIGSVLLRELKPVLSQG [AP3B1] | -0.0973 | -0.704 | -0.939 | -0.0793 | 50.6 | 50
9 | MSDLQAAEGPGSWSPTARPGSAGGVGDCQGVEGSQAAASENEDLENKDTSLLASATDPEPCSSPHRPQMVSPVSKDATEDLRKATGPLEAQALVKQDLLPADQAQVLNEMAKYQVPQRSGDIVMIQSEHTGAIDVLSADLESADLLGDHRKVSPPLMAPPCIWTFAKVKEFKSKLGKEKNSRLVVKRGEVVTIRVPTHPEGKRVCWEFATDDYDIGFGVYFDWTPVTSTDITVQVSDSSDDEDEEEEEEEEIEEPVPAGDVERGSRSSLRGRYGEVMPVYRRDSHRDVQAGSHDYPGEGIYLLKFDNSYSLLRNKTLYFHIYYTS [TMED8] | -0.104 | -0.422 | -0.616 | 0.328 | 50.4 | 50.3
